From PMC10502629

Columns and labels:
[1] = molecular target: SC-A0A4 (SpyCatcher fused to the N-terminus of the AaLS homologue A0A497XTC1 of Hydrogenivirga caldilitoris) (Hydrogenivirga caldilitoris); experiment: covalent SpyCatcher/SpyTag conjugation read by SDS-PAGE; purified SC-scaffolds incubated with ST-OVAT in conventional buffer without any enzyme (4 °C, 16 h in Figure 3e); conjugates purified by SEC, SDS-PAGE with Coomassie staining; reactivity kept after heating at 75 °C or 5 x …
[2] = molecular target: SC-AaLS (SpyCatcher fused to the N-terminus of Aquifex aeolicus lumazine synthase) (Aquifex aeolicus); experiment: as above

For “ST-OVAT (SpyTag fused to the N-terminus of ovalbumin T epitopes) (peptide)”, the percent conjugated [1] was 100% and the percent conjugated [2] was 100%.
